The values below come from PMC3355655.

For orientation: Km means the concentration of substrate that gives half-maximal velocity.

Substrate in this series: O=P(O)(O)O[C@H]1[C@H](O)[C@@H](OP(=O)(O)O)[C@H](OP(=O)(O)O)[C@@H](OP(=O)(O)O)[C@H]1O
In words: purified protein. The following applies: Mg2+.

B1: SHIP2 (SH2 (Src homology 2)-domain-containing inositol-phosphatase-2) (Homo sapiens) (protein)
chain: DEPDMISVFIGTWNMGSVPPPKNVTSWFTSKGLGKTLDEVTVTIPHDIYVFGTQENSVGDREWLDLLRGGLKELTDLDYRPIAMQSLWNIKVAVLVKPEHENRISHVSTSSVKTGIANTLGNKGAVGVSFMFNGTSFGFVNCHLTSGNEKTARRNQNYLDILRLLSLGDRQLNAFDISLRFTHLFWFGDLNYRLDMDIQEILNYISRKEFEPLLRVDQLNLEREKHKVFLRFSEEEISFPPTYRYERGSRDTYAWHKQKPTGVRTNVPSWCDRILWKSYPETHIICNSYGCTDDIVTSDHSPVFGTFEVGVTSQFISKKGLSKTSDQAYIEFESIEAIVKTASRTKFFIEFYSTCLEEYKKSFENDAQSSDNINFLKVQWSSRQLPTLKPILADIEYLQDQHLLLTVKSMDGYE
Consider B1, for which the Km was determined as 215 ± 28 µM.
